According to US6710030B1, “Contortrostain (CN) and methods for its use in preventing metastasis and other conditions” (University of Southern California, priority 1993, dated 2004):
Like-named read-outs stand apart in the source and are kept apart here.

Experiments:
[1] = test system: c-Ha-ras transfected rat embryo (4R) cells; details: cited from earlier work
[2] = test system: canine carotid artery thrombosis model; assay: Reoccluding canine carotid artery thrombosis model; type: in vivo
Source text: The model of carotid artery thrombosis in the anesthetized canine described is a modification of one developed for the study of experimentally-induced coronary artery thrombosis [Romson, J. L. et al., Thromb. Res. 17:841 (1980)]. The experimental procedure results in the formation of a platelet rich intravascular thrombus at the site of an electrolytically-induced endothelial lesion in proximity to a distal arterial stenosis. The carotid artery is selected for the experimental model, thereby allowing one vessel to be used as a control and the other to be used after administration of the thrombolytic and antithrombotic therapy. APSAC (anisoylated plasminogen streptokinase activator complex) has been used as the thrombolytic agent successfully in this model. […] Parameters which are recorded include repeated measures of: phasic and mean carotid artery blood flow velocity using an ultrasonic flow probe, time to thrombotic occlusion, time to recannulization, ex vivo platelet aggregation, prothrombin time, thrombin time, activated partial thromboplastin time, red cell and white cell counts, hematocrit, EKG profile and body temperature, before and after administration of APSAC or APSAC plus CN to separate groups of animals.
Conditioned male mongrel dogs (8-10 kg) have been used for all in vivo studies. […] Arterial blood pressure is monitored from the cannulated femoral artery with the use of a blood pressure transducer. […] Blood flow velocity in the carotid vessels is monitored continuously. […]
Electrolytic injury to the intimal surface of each carotid vessel is accomplished with the use of an intravascular electrode. […] The current delivered to each vessel is monitored continuously and maintained at 300 μA. […]

OVCAR-5 cells = assay: Adhesion of OVCAR-5 cells to vitronectin coated plate; type: cell-based, human
Source text: FIG. 21. CN and other antagonists of αvβ5 inhibits adhesion of OVCAR-5 cells to vitronectin. Adhesion of cancer cells to the matrix is one of the critical steps of cancer spreading and metastasis. It is well established that integrin αvβ5 mediates adhesion of cells to vitronectin.

MDA-MB-435 cells = assay: Phosphotyrosine immunoblot, MDA-MB-435 cells; type: cell-based, human
Description: (§1) Cell culture, preparation and stimulation—T24 cells were maintained in RPMI 1640 medium containing 5% fetal bovine serum, and MDA-MB-435 and 293 cells were maintained in Dulbecco's modified Eagle's medium with 10% serum at 37° C. in 5% CO2. Cells were washed with phosphate-buffered saline (PBS) and starved in the appropriate serum-free medium for 6 h at 37° C. Cells were detached by brief treatment with 0.05% trypsin/0.02% EDTA in PBS and collected by centrifugation, resuspended in soybean trypsin inhibitor (1 mg/ml in serum-free medium), and washed in 2% bovine serum albumin/serum-free medium. Cells were maintained in suspension for 1 h in 2% bovine serum albumin/serum-free medium at 37° C. with end-over-end agitation. Quiescent cells (3×10^6/ml) were treated with disintegrins or other reagents while in suspension, or were allowed to adhere to Matrigel (Becton Dickinson, Bedford, Mass.) diluted 1:100 with serum-free medium during treatment.
(§2) Lysate preparation and immunoprecipitation—Suspended and adherent cells were washed twice with cold PBS and lysed in cold lysis buffer (50 mM Tris, pH 8.0, 150 mM NaCl, 1% Nonidet P-40, 0.5% deoxycholate, 0.1% SDS, protease inhibitor cocktail, 1 mM sodium pyrophosphate, 1 mM sodium orthovanadate, 50 mM sodium fluoride). After 10-15 min incubation on ice, insoluble material was removed by centrifugation at 14,000 RPM in a microcentrifuge for 15 min. Supernatants were collected and total protein concentrations standardized by the BCA protein assay (Pierce, Rockford, Ill.). Immunoprecipitation was carried out by incubating whole cell lysates (200 μg total protein) with 1.25 μg anti-FAK or anti-CAS mAb 4-6 h at 4° C. followed by 20 μl protein G-agarose overnight at 4° C. Immunoprecipitates were washed 4 times in lysis buffer without inhibitors and dissociated by adding SDS-PAGE sample buffer and boiling 5 min. Whole cell lysates (30 μg total protein) or immunoprecipitates were resolved by 7.5% SDS-polyacrylamide gel electrophoresis and transferred to nitrocellulose membranes.
Immunoblotting—Membranes were blocked with 5% nonfat milk/Tris-buffered saline/0.1% Tween 20 (blocking buffer) 1 h at room temperature or overnight at 4° C. Primary antibody incubations were performed in blocking buffer for 1 h at room temperature. After washing in Tris-buffered saline/0.1% Tween 20, membranes were incubated with horseradish peroxidase-conjugated secondary antibody in blocking buffer 1 h at room temperature. Membranes were washed extensively. Inimunoblots were developed using Super Signar West Pico Chemiluminescent Substrate from Pierce. Densitometry was performed using UN-SCAN-IT™, software (Silk Scientific, Orem, Utah))

T24 cells = assay: Phosphotyrosine immunoblot, T24 cells; type: cell-based, human
Description: as §1
as §2, with “membranes. […]” for “membranes.”

B1: contortrostatin (protein)
chain: DAPANPCCDAATCKLTTGSQCADGLCCDQCKFMKEGTVCRRARGDDLDDYCNGISAGCPRNPFHA
[1]; CN at 1 μg/ml
  Inhibition of 4R cell binding to fibronectin: 46%
[1]; CN at 5 μg/ml
  Inhibition of 4R cell binding to fibronectin: 88%
[2]; by the conclusion of the experimental procedure
  recovery of platelet counts: 30-40 % of the baseline value
[2]; during experiment, APSAC plus CN (0.155 mg/kg)
  drop in platelet counts: 10-20 % of the baseline value
[2]; following infusion of CN
  changes in mean arterial blood pressure or mean heart rate: essentially no changes
OVCAR-5 cells
  adhesion of OVCAR-5 cells to vitronectin: inhibited
MDA-MB-435 cells; suspended cells, 10 min
  concentration giving maximal tyrosine phosphorylation: 10 nM
MDA-MB-435 cells; tumor cells, soluble contortrostatin
  lowest concentration increasing tyrosine phosphorylation of FAK and CAS: 1 nM
T24 cells
  tyrosine phosphorylation in cells adherent to Matrigel: significant additional increase
T24 cells; 1000 nM
  tyrosine phosphorylation at high concentration: reduced levels of tyrosine phosphorylation
T24 cells; suspended cells
  tyrosine phosphorylation of 120-140 kDa proteins: also observed
